Assays:
[1] = target: mutant T238V yeast αβ-tubulin (T238V in Tub2p, β-tubulin) (yeast (S. cerevisiae)) (UniProt P09733); assay: laser trap plucking force assay; bead tethered by a single anti-His antibody to the His6 tag of β-tubulin at the growing end of a coverslip-anchored microtubule; force ramp 0.25 pN s^-1 until detachment; only detachments followed at once by disassembly counted; removal of tubulin dimers from the microtubule end
[2] = target: wild-type yeast αβ-tubulin with a His6 tag fused to the C-terminus of β-tubulin (yeast (S. cerevisiae)) (UniProt P09733); assay: as above

| plucking force [1] | plucking force [2] | Substance |
| --- | --- | --- |
| 19 pN | – | mutant T238V yeast αβ-tubulin (T238V in Tub2p, β-tubulin) (from UniProt P09733 1-447; P02557 1-457) (complex) |
| – | 8.3 pN | wild-type yeast αβ-tubulin with a His6 tag fused to the C-terminus of β-tubulin (from UniProt P09733 1-447; P02557 1-457) (complex) |

Source: article PMC5515574
